Measurements published in the supplement of paper PMC7877785.
± gives the uncertainty stated by the source.

Assay: self-splicing fitness, log relative to wild type (ln ratio); higher = more splicing; Tetrahymena group I intron in knt gene, E. coli kanamycin selection, DiMSum; sequences stand for … in CUCUCU…GGAGGGAAAAGUUAUCAGGCAUGCACCUGGUAGCUAGUCUUUAAACCAAUAGAUUGCAUCGGUUUAAAAGGCAAGACCGUCAAAUUGCGGGAAAGGGGUCAACAGCCGUUCAGUACCAAGUCUCAGGGGAAACUUUGAGAUGGCCUUGCAAAGGGUAUGGUAAUAAGCUGACGGACAUGGUCCUAACCACGCAGCCAAGUCCUAAGUCAACAGAUCUUCUGUUGAUAUGGAUGCAGUUCACAGACUAAAUGUCGGUCGGGGAAGAUGUAUUCUUCUCAUAAGAUAUAGUCGGACCUCUCCUUAAUGGGAGCUAGCGGAUGAAGUGAUGCAACACUGGAGCCGCUGGGAACUAAUUUGUAUGCGAAAGUAUAUUGAUUAGUUUUGGAGUACUCGUGGUCG
Method in brief: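 The eight P1ex-region nucleotides of an intron in the knt kanamycin-resistance gene on pET-22b(+) were all randomised and the library put into E. coli BL21(DE3). Six replicate transformations were grown overnight at 37°C or 30°C on LB agar with or without 25 μg/mL kanamycin, together with 100 μg/mL carbenicillin, 50 μM IPTG and 0.2% rhamnose. Colonies were pooled and amplicon-sequenced on an Illumina HiSeq 2500. Fitness from DiMSum is the error-weighted combination of wild-type-normalised replicate fold changes, kanamycin over none.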

ACCGAGCAAUAUUACGCGAC
self-splicing fitness (ln) (37 °C): -2.66 ± 0.44

CAAUAGCAAUAUUACGUGUA
self-splicing fitness (ln) (30 °C): -3.98 ± 0.18
self-splicing fitness (ln) (37 °C): -2.29 ± 0.11

AGGAAGCAAUAUUACGUAUG
self-splicing fitness (ln) (30 °C): -2.39 ± 0.14
self-splicing fitness (ln) (37 °C): -2.3 ± 0.16

AUGCAGCAAUAUUACGUCCU
self-splicing fitness (ln) (30 °C): 0.0695 ± 0.095
self-splicing fitness (ln) (37 °C): 0.786 ± 0.11

AGCGAGCAAUAUUACGGCCU
self-splicing fitness (ln) (30 °C): -0.967 ± 0.17
self-splicing fitness (ln) (37 °C): -0.258 ± 0.19

CACAAGCAAUAUUACGCUGG
self-splicing fitness (ln) (30 °C): -4.18 ± 0.23
self-splicing fitness (ln) (37 °C): -1.74 ± 0.14

AGAGAGCAAUAUUACGUGUG
self-splicing fitness (ln) (30 °C): -3.84 ± 0.16
self-splicing fitness (ln) (37 °C): -3.07 ± 0.24

UCCAAGCAAUAUUACGAUUA
self-splicing fitness (ln) (30 °C): -0.942 ± 0.11
self-splicing fitness (ln) (37 °C): -0.817 ± 0.11

CGCGAGCAAUAUUACGGUAA
self-splicing fitness (ln) (30 °C): -2.58 ± 0.23
self-splicing fitness (ln) (37 °C): -1.58 ± 0.31

AGUUAGCAAUAUUACGGGCU
self-splicing fitness (ln) (30 °C): -3.01 ± 0.28
self-splicing fitness (ln) (37 °C): -1.79 ± 0.24

GACAAGCAAUAUUACGAUUG
self-splicing fitness (ln) (30 °C): -1.77 ± 0.078
self-splicing fitness (ln) (37 °C): -1.54 ± 0.14

GAUGAGCAAUAUUACGACAC
self-splicing fitness (ln) (30 °C): -1.25 ± 0.15
self-splicing fitness (ln) (37 °C): -0.309 ± 0.16

UGAGAGCAAUAUUACGUACA
self-splicing fitness (ln) (30 °C): -2.02 ± 0.21
self-splicing fitness (ln) (37 °C): -0.955 ± 0.26

CACGAGCAAUAUUACGUCCG
self-splicing fitness (ln) (30 °C): -1.34 ± 0.092
self-splicing fitness (ln) (37 °C): -0.226 ± 0.096

UGGAAGCAAUAUUACGUGGG
self-splicing fitness (ln) (30 °C): -2.89 ± 0.13
self-splicing fitness (ln) (37 °C): -2.53 ± 0.18

UUGAAGCAAUAUUACGUAGG
self-splicing fitness (ln) (30 °C): -1.27 ± 0.11
self-splicing fitness (ln) (37 °C): -0.153 ± 0.12

AAAAAGCAAUAUUACGGUCG
self-splicing fitness (ln) (30 °C): -0.302 ± 0.062
self-splicing fitness (ln) (37 °C): 0.273 ± 0.083

UUUUAGCAAUAUUACGGGGU
self-splicing fitness (ln) (30 °C): -1.6 ± 0.22
self-splicing fitness (ln) (37 °C): -1.08 ± 0.35

UAAAAGCAAUAUUACGUACC
self-splicing fitness (ln) (30 °C): -2.18 ± 0.25
self-splicing fitness (ln) (37 °C): -0.361 ± 0.21

AGGCAGCAAUAUUACGGCUU
self-splicing fitness (ln) (30 °C): -2.17 ± 0.12
self-splicing fitness (ln) (37 °C): -1.83 ± 0.16

CGGCAGCAAUAUUACGCACG
self-splicing fitness (ln) (30 °C): -2.17 ± 0.15
self-splicing fitness (ln) (37 °C): -2.1 ± 0.23

CGUGAGCAAUAUUACGCGUA
self-splicing fitness (ln) (37 °C): -1.86 ± 0.47

GAUAAGCAAUAUUACGUACG
self-splicing fitness (ln) (30 °C): -1.67 ± 0.1
self-splicing fitness (ln) (37 °C): -0.494 ± 0.11

GGUAAGCAAUAUUACGCUUU
self-splicing fitness (ln) (30 °C): -1.88 ± 0.24
self-splicing fitness (ln) (37 °C): -2.02 ± 0.33

UGAGAGCAAUAUUACGCAUU
self-splicing fitness (ln) (30 °C): -3.34 ± 0.38

ACAUAGCAAUAUUACGUCAU
self-splicing fitness (ln) (30 °C): -3.16 ± 0.1
self-splicing fitness (ln) (37 °C): -2.35 ± 0.13

GCAUAGCAAUAUUACGUAAC
self-splicing fitness (ln) (30 °C): -2.24 ± 0.13
self-splicing fitness (ln) (37 °C): -1.57 ± 0.14

CAUCAGCAAUAUUACGGGGG
self-splicing fitness (ln) (30 °C): -1.94 ± 0.084
self-splicing fitness (ln) (37 °C): -0.816 ± 0.1

CCAGAGCAAUAUUACGAUUC
self-splicing fitness (ln) (30 °C): -4.06 ± 0.22
self-splicing fitness (ln) (37 °C): -2.67 ± 0.21

GGGAAGCAAUAUUACGGACU
self-splicing fitness (ln) (30 °C): -1.99 ± 0.17
self-splicing fitness (ln) (37 °C): -0.24 ± 0.19

CUUCAGCAAUAUUACGAGAC
self-splicing fitness (ln) (30 °C): -4.24 ± 0.34
self-splicing fitness (ln) (37 °C): -3.01 ± 0.34

UCCAAGCAAUAUUACGCAGA
self-splicing fitness (ln) (30 °C): -1.58 ± 0.12
self-splicing fitness (ln) (37 °C): -0.571 ± 0.088

UGUUAGCAAUAUUACGUAAU
self-splicing fitness (ln) (30 °C): -2.96 ± 0.3
self-splicing fitness (ln) (37 °C): -1.02 ± 0.21

AGAGAGCAAUAUUACGCUGG
self-splicing fitness (ln) (30 °C): -3.07 ± 0.27
self-splicing fitness (ln) (37 °C): -2.4 ± 0.32

CUAGAGCAAUAUUACGCUCG
self-splicing fitness (ln) (30 °C): -3.8 ± 0.46
self-splicing fitness (ln) (37 °C): -1.69 ± 0.36

UCGGAGCAAUAUUACGCACG
self-splicing fitness (ln) (30 °C): -3.16 ± 0.34
self-splicing fitness (ln) (37 °C): -0.819 ± 0.16

UUGCAGCAAUAUUACGAAGU
self-splicing fitness (ln) (30 °C): -2.38 ± 0.23
self-splicing fitness (ln) (37 °C): -1.75 ± 0.36

CCAGAGCAAUAUUACGAUGG
self-splicing fitness (ln) (30 °C): -4.18 ± 0.34
self-splicing fitness (ln) (37 °C): -2.04 ± 0.27

ACCAAGCAAUAUUACGCGAA
self-splicing fitness (ln) (30 °C): -3.09 ± 0.13
self-splicing fitness (ln) (37 °C): -1.65 ± 0.1

GCAGAGCAAUAUUACGCGUC
self-splicing fitness (ln) (30 °C): -3.88 ± 0.2
self-splicing fitness (ln) (37 °C): -2.03 ± 0.14

CAGGAGCAAUAUUACGUAAU
self-splicing fitness (ln) (30 °C): -3.99 ± 0.47
self-splicing fitness (ln) (37 °C): -2.78 ± 0.44

CGCCAGCAAUAUUACGUCCC
self-splicing fitness (ln) (37 °C): -2.37 ± 0.49

AUAUAGCAAUAUUACGAGCC
self-splicing fitness (ln) (30 °C): -2.89 ± 0.32
self-splicing fitness (ln) (37 °C): -2.08 ± 0.37

UCAGAGCAAUAUUACGGAAG
self-splicing fitness (ln) (30 °C): -3.05 ± 0.26
self-splicing fitness (ln) (37 °C): -3.41 ± 0.37

GAACAGCAAUAUUACGUGUU
self-splicing fitness (ln) (30 °C): -3.97 ± 0.17
self-splicing fitness (ln) (37 °C): -2.61 ± 0.16

UAACAGCAAUAUUACGACGA
self-splicing fitness (ln) (30 °C): 0.245 ± 0.069
self-splicing fitness (ln) (37 °C): 0.319 ± 0.083

GAUUAGCAAUAUUACGGCGU
self-splicing fitness (ln) (30 °C): -0.737 ± 0.068
self-splicing fitness (ln) (37 °C): -0.796 ± 0.062

GAGGAGCAAUAUUACGCAGU
self-splicing fitness (ln) (30 °C): -2.89 ± 0.28
self-splicing fitness (ln) (37 °C): -3.66 ± 0.42

UAUAAGCAAUAUUACGCACA
self-splicing fitness (ln) (30 °C): -0.168 ± 0.085
self-splicing fitness (ln) (37 °C): -0.211 ± 0.11

ACAUAGCAAUAUUACGGGAG
self-splicing fitness (ln) (30 °C): -2.13 ± 0.11
self-splicing fitness (ln) (37 °C): -1.52 ± 0.11

GAGAAGCAAUAUUACGAAUA
self-splicing fitness (ln) (30 °C): -1.88 ± 0.25
self-splicing fitness (ln) (37 °C): -0.917 ± 0.2

UUGAAGCAAUAUUACGUGUG
self-splicing fitness (ln) (30 °C): -0.963 ± 0.056
self-splicing fitness (ln) (37 °C): -0.69 ± 0.072

UUAAAGCAAUAUUACGACCU
self-splicing fitness (ln) (30 °C): -0.0595 ± 0.074
self-splicing fitness (ln) (37 °C): 0.121 ± 0.1

UUUGAGCAAUAUUACGUCGU
self-splicing fitness (ln) (30 °C): -3.91 ± 0.34
self-splicing fitness (ln) (37 °C): -3.09 ± 0.24

CAACAGCAAUAUUACGGCCU
self-splicing fitness (ln) (30 °C): -3.63 ± 0.16
self-splicing fitness (ln) (37 °C): -1.3 ± 0.12

CAGUAGCAAUAUUACGGUAC
self-splicing fitness (ln) (30 °C): -5 ± 0.45
self-splicing fitness (ln) (37 °C): -3 ± 0.27

CUGCAGCAAUAUUACGAGCU
self-splicing fitness (ln) (30 °C): -2.93 ± 0.18
self-splicing fitness (ln) (37 °C): -2.25 ± 0.21

GAUGAGCAAUAUUACGCUGA
self-splicing fitness (ln) (30 °C): -3.11 ± 0.44
self-splicing fitness (ln) (37 °C): -2.46 ± 0.38

UGAUAGCAAUAUUACGUGUG
self-splicing fitness (ln) (30 °C): -1.45 ± 0.1
self-splicing fitness (ln) (37 °C): -0.804 ± 0.098

CACCAGCAAUAUUACGUGUA
self-splicing fitness (ln) (30 °C): -2.09 ± 0.065
self-splicing fitness (ln) (37 °C): -0.896 ± 0.069

CAAUAGCAAUAUUACGACAA
self-splicing fitness (ln) (30 °C): -3.42 ± 0.18
self-splicing fitness (ln) (37 °C): -2.07 ± 0.15

GAUAAGCAAUAUUACGGCUC
self-splicing fitness (ln) (30 °C): -0.362 ± 0.17
self-splicing fitness (ln) (37 °C): 0.29 ± 0.2

CGCUAGCAAUAUUACGGGUC
self-splicing fitness (ln) (30 °C): -3.08 ± 0.21
self-splicing fitness (ln) (37 °C): -2.9 ± 0.34

ACAAAGCAAUAUUACGCUUC
self-splicing fitness (ln) (30 °C): -3.15 ± 0.14
self-splicing fitness (ln) (37 °C): -2.46 ± 0.16

AGUGAGCAAUAUUACGGUGA
self-splicing fitness (ln) (30 °C): -3.03 ± 0.31
self-splicing fitness (ln) (37 °C): -2.96 ± 0.3

CGAAAGCAAUAUUACGUAAC
self-splicing fitness (ln) (37 °C): -0.987 ± 0.5

GCCCAGCAAUAUUACGGGCU
self-splicing fitness (ln) (30 °C): -3.75 ± 0.16
self-splicing fitness (ln) (37 °C): -2.81 ± 0.15

AUGUAGCAAUAUUACGCAAC
self-splicing fitness (ln) (30 °C): -2.69 ± 0.45
self-splicing fitness (ln) (37 °C): -0.382 ± 0.27

UAACAGCAAUAUUACGGCAG
self-splicing fitness (ln) (30 °C): -0.752 ± 0.077
self-splicing fitness (ln) (37 °C): -0.814 ± 0.084

CGCGAGCAAUAUUACGUGUC
self-splicing fitness (ln) (30 °C): -3.46 ± 0.19
self-splicing fitness (ln) (37 °C): -2.6 ± 0.2

CAACAGCAAUAUUACGGGCA
self-splicing fitness (ln) (30 °C): -2.61 ± 0.1
self-splicing fitness (ln) (37 °C): -1.9 ± 0.12

CCUGAGCAAUAUUACGGUAC
self-splicing fitness (ln) (30 °C): -4.34 ± 0.34

UCCAAGCAAUAUUACGUGCU
self-splicing fitness (ln) (30 °C): -3.49 ± 0.22
self-splicing fitness (ln) (37 °C): -2.76 ± 0.22

GGCCAGCAAUAUUACGGUUA
self-splicing fitness (ln) (30 °C): 0.0773 ± 0.069
self-splicing fitness (ln) (37 °C): -0.541 ± 0.067

CCUUAGCAAUAUUACGGACG
self-splicing fitness (ln) (30 °C): -1 ± 0.13
self-splicing fitness (ln) (37 °C): -0.586 ± 0.17

CCGAAGCAAUAUUACGAUCA
self-splicing fitness (ln) (30 °C): -2.35 ± 0.13
self-splicing fitness (ln) (37 °C): -0.736 ± 0.14

AGCAAGCAAUAUUACGUAGG
self-splicing fitness (ln) (30 °C): -2.75 ± 0.1
self-splicing fitness (ln) (37 °C): -2.1 ± 0.12
